# Publication PMC6663880
# Tests used:
# [1] = target: p97/VCP (valosin-containing protein) (UniProt P55072); assay: co-immunoprecipitation (anti-FLAG beads), immunoblot quantification; details: HEK293 cells; n = 3; parent: est. 1.0; read off a plot
# [2] = target: Lys63-linked polyubiquitin (UniProt P0CG48); assay: as above; details: HEK293 cells; n = 3; parent: est. 1.0; read off a plot
# UniProt P55072, sequence (P55072 whole entry): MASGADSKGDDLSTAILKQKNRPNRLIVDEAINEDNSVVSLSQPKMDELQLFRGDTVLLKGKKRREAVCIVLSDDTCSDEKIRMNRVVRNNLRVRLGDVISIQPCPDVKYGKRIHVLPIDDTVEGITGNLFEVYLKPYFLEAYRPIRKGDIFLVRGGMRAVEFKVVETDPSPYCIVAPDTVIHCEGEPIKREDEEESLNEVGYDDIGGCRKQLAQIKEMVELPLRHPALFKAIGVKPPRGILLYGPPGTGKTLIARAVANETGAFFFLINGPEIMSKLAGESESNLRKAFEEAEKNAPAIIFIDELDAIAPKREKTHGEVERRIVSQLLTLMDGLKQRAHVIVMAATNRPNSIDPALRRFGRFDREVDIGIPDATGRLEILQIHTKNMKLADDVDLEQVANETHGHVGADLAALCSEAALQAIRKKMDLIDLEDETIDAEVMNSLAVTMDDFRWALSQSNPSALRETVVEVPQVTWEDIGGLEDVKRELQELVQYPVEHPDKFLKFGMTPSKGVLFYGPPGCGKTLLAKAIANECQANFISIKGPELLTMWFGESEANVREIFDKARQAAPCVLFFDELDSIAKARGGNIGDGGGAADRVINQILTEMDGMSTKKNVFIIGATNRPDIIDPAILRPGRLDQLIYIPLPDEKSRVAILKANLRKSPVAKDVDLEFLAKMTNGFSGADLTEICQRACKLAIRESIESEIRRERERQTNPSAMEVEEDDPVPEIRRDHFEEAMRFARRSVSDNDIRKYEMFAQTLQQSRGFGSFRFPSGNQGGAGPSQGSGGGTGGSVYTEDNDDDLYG
substance,measurement,setting,value
RHBDL4mycFLAG (from UniProt Q8TEB9) AllY>F,ratio to parent,[1],0.22
same,ratio to parent,[2],0.36
